Assay results reported in patent publication US12065507B2 (priority 2020, dated 2024).
Where two headings read alike, the source gives them in different places.

Experiments:
[1] = read-out: Kd, morphine; 2 nM [H^3]-morphine, room temperature, 60 minutes, pH 7.4
Description: The binding constant of the antibody with [H^3]-morphine were tested using liquid scintillation counting. Briefly, 2 nM [H^3]-morphine was incubated with different concentration of antibody at room temperature for 60 minutes. The total volume of mixture was 100 and pH was 7.4.

[2] = Competitive binding of [H^3]-morphine against naloxone
[3] = Competitive binding of [H^3]-morphine against oxycodone; conditions: read-out: Kd, oxycodone; from IC50 against 2 nM [H^3]-morphine
[4] = Competitive binding of [H^3]-morphine against meperidine; conditions: read-out: Kd, meperidine; from IC50 against 2 nM [H^3]-morphine
[5] = Competitive binding of [H^3]-morphine against naltrexone
[6] = collected from the references cited; read-out: Activities (Kd), Morphine; cited from earlier work
[7] = cited from earlier work
[8] = mice; cited from earlier work
[9] = 10 μM competing drug, 60 nM antibody, 2 nM [H^3]-morphine
[10] = collected from the references cited, read-out: Activities (Kd), 6-MAM

Molecule	Kd [6]	Kd [7, 10]	other results
UK6Mab02: fully humanized antibody (H1L3) designed from Ab13, with human IgG1 heavy and kappa light constant regions (antibody, V domains shown, H1 (UK6Mab02) Heavy Chain; L3 (UK6Mab02) - Light chain) VH: EVQLVQSGAEVKKPGASVKISCKASGYTFTSYWIEWVKQAPGKGLEWIGEINPSGGSTIYAEKFQGRATFTADTSTSTAYMELSSLRSEDTAVYYCARWVLDYYGMDYWGQGTSLTVSS VL: QAVVTQEPSLTVSPGGTVTLTCGSSTGAVTSGNYANWVQQKPGQAFRGLIGGTNTRSSGVPDRFSGSLLGGKAALTISGAQPEDEAEYYCALWYSNKLVFGGGTKLTVL			Kd [1]: 127 nM; Binding with naloxone in initial screening [2, 9]: did not show significant binding affinities; Kd ([2]; read-out: Kd, naloxone, from competition with 2 nM [H^3]-morphine): > 10000 nM; Kd [3]: 6910 nM; Kd [4]: 15700 nM; Binding with naltrexone in initial screening [5, 9]: did not show significant binding affinities; Kd ([5]; read-out: Kd, naltrexone, from competition with 2 nM [H^3]-morphine): > 10000 nM
Ab19 (antibody, V domains shown, Ab19 - Heavy chain; Ab19 - Light chain) VH: EVQLVESGGGLVQPGRSLRLSCAASGFSFGDYARIMVRQAPGKGLEWVSGISWDSYTTGYADSVKGRFTVSRDNAICNSLYLQMNSLRPEDTAVYYCAKAPSPRRVIIEYFDSDYWGGTSLTVSS VL: QSVLTQPPSVSGAPGQRVTISCTGSSSNIGAGYDVHWYQQLPGTAPKLLIYGNSNRPSGVPDRFSGSKSGTSASLAITGLQAEDEADYYCQSYDSSLRGVVFGGGTKLTVL	≥ 10000 nM	160 nM	
Ab24: known anti-6-MAM antibody 6-MAM-120; heavy chain SEQ ID NO: 36, light chain SEQ ID NO: 62 (antibody, V domains shown, Ab24 - Heavy chain; Ab24 - Light chain) VH: EVQLVESGGGLVQPGRSLRLSCAASGFTFGDYAIHMVRQAPGKGLEWVAGISWDSYTTGYADSVKGRFTVSRDNAKNSLYLQMNSLRPEDTAVYYCAICAPSPRRVIIEYFQYDYWGQGTSLTVSS VL: QSALTQPASVSGAPGQRVTISCTGSSSNIGAGYDVHWYQQLPGTAPKLLIYGNSNRPSGVPDRFSGSKSGTSASLAITGLQAEDEADYYCQSYDSSLSGVVFGGGTKLTVL	> 10000 nM	250 nM	
Ab20: known anti-6-MAM antibody 6-MAM-102; heavy chain SEQ ID NO: 32, light chain SEQ ID NO: 58 (antibody, V domains shown, Ab20 - Heavy chain; Ab20 - Light chain) VH: EVQLVESGGGLVQPGRSLRLSCAASGFSFGDYAIHMVRQAPGKGLEWVSGISWDSYTTGYADSVKGRFTVSRDNAKNSLYLQMNSLRPEDTAVYYCAKAPSPRRVHEYFDSDYWGQGTSLTVSS VL: QSALTQPASVSGAPGQRVTMSCTGSSSNIGAGYDVHWYQQLPGTAPKLLIFGNTNRPSGVPDRFSASKSGTSASLAITGLQAEDEADYYCQSYDNSLSGVVFGGGTKLTVL	> 10000 nM	170 nM	
Ab21: known anti-6-MAM antibody 6-MAM-103; heavy chain SEQ ID NO: 33, light chain SEQ ID NO: 59 (antibody, V domains shown, Ab21 - Heavy chain; Ab21 - Light chain) VH: EVQLVESGGGLVQPGRSLRLSCAASGFSFGDYAIHMVRQAPGKGLEWVSGISWDSYTTGYADSVKGRFTVSRDNAICNSLYLQMNSLRPEDTAVYYCAKAPSPRRVIIEYFDSDYWGQGTSLTVSS VL: QSALTQPASVSGAPGQRVTISCTGSSSNIGAGYDVHWYQQLPGTAPKLLIYGNSNRPSGVPDRFSGSKSGTSASLAITGLQAEDEADYYCQSYDSSLSGVVFGGGTKLTVL	> 10000 nM	100 nM	
Ab17: known 6-MAM-specific mAb 6-MAM-214; heavy chain SEQ ID NO: 29, light chain SEQ ID NO: 55 (antibody, V domains shown, Ab17 - Heavy chain; Ab17 - Light chain) VH: EVQLVESGGGLVQPGRSLRLSCAASGFSFGDYAIHMVRQAPGKGLEWVSGISWDSYTTGYADSVKGRFTVSRDNAKNSLYLQMNSLRPEDTAVYYCAKAPSPRRVIIEYFDSDYWGQGTSLTVSS VL: QSALTQPASVSGAPGQTVSISCTGWSSNIGAGYDVHWYQQLPGTAPKLLISHNTNRPSGVPDRFSGSKSGTSASLAITGLQAEDEADYYCQSYDSTLGVVVEGGGTICLTVL	> 10000 nM	300 nM	Kd ([7]; literature value, read-out: affinity for 6-MAM): 300 nM; Effect on acute heroin effects [8]: able to reduce the acute heroin effects in mice
Ab22: known anti-6-MAM antibody 6-MAM-108; heavy chain SEQ ID NO: 34, light chain SEQ ID NO: 60 (antibody, V domains shown, Ab22 - Heavy chain; Ab22 - Light chain) VH: EVQLVESGGGLVQPGRSLRLSCAASGFSFGDYAIHMVRQAPGKGLEWVSGISWDSYTTGYADSVKGRFTVSRDNAKNSLYLQMNSLRPEDTAVYYCAKAPSPRRVIIEYFDSDYWGQGTSLTVSS VL: QSVLTQPPSVSGAPGQRVTISCTGSSSNIGAGYDVHWYQQLPGTAPKLLWGNSNRPSGVPDRFSGSKSGTSASLAITGLQAEDEADYYCQSYDSSLSGVVFGGGTKLTVL	> 10000 nM	170 nM	
